# Experiments:
# HLA-Cw6 on 721.221 cells = assay: flow cytometry on cells (Ig-fusion protein staining)
# HLA-Cw3 on 721.221 cells = assay: as above
substance,measurement,setting,value
KIR2DS2-Ig (from UniProt P43631) KYK/KFK,response,HLA-Cw6 on 721.221 cells,1.05 MFI
same,response,HLA-Cw3 on 721.221 cells,114 MFI

# Reference: PMC2812487
